The source of these data is PMC9279676, “ERK2 MAP kinase regulates SUFU binding by multisite phosphorylation of GLI1” (Life Science Alliance, 2022).

Residue numbers refer to the chain shown, from its start.

Sequences and labels used below:
T1: GST-GLI1^S116, phosphorylated by ERK2 (human, UniProt P08151-1 68-232, S70A | S86A | S102A | S130A | S146A | S201A, phosphorylated by ERK2; only intact SP site S116)
T1 sequence: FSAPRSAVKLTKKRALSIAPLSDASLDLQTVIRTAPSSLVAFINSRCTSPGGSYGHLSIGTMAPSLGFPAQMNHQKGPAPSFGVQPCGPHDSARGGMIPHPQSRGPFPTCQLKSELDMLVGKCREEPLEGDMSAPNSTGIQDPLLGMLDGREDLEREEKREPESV

T2: GST-GLI1^S116,S130, phosphorylated by ERK2 (human, UniProt P08151-1 68-232, S70A | S86A | S102A | S146A | S201A, phosphorylated by ERK2; intact SP sites S116, S130)
T2 sequence: T1 sequence with A63S

T3: GST-GLI1^S130, phosphorylated by ERK2 (human, UniProt P08151-1 68-232, S70A | S86A | S102A | S116A | S146A | S201A, phosphorylated by ERK2; only intact SP site S130)
T3 sequence: T1 sequence with S49A, A63S

T4: GST-GLI1^S116, phosphorylated by ERK2 (human, UniProt P08151-1 68-232, S70A | S86A | S102A | S130A | S146A | S201A, phosphorylated by ERK2; only intact SP site S116)
T4 construct: only the SP site S116 intact; also called ERK2-treated GLI1^S116; source: bacteria, purified (glutathione-Sepharose); then phosphorylated with purified active ERK2
T4 sequence (looked up): T1 sequence

T5: GST-GLI1^S130, phosphorylated by ERK2 (human, UniProt P08151-1 68-232, S70A | S86A | S102A | S116A | S146A | S201A, phosphorylated by ERK2; only intact SP site S130)
T5 construct: only the SP site S130 intact; also called ERK2-treated GLI1^S130; source: bacteria, purified (glutathione-Sepharose); then phosphorylated with purified active ERK2
T5 sequence (looked up): T1 sequence with S49A, A63S

T6: GST-GLI1^S116,S130 (GST-GLI1_(68-232), only S116 and S130 intact), mock treated (human, UniProt P08151-1 68-232, S70A | S86A | S102A | S146A | S201A)
T6 sequence: T1 sequence with A63S

T7: GST-GLI1^S102,S116 (GST-GLI1_(68-232), only S102 and S116 intact), mock treated (human, UniProt P08151-1 68-232, S70A | S86A | S130A | S146A | S201A)
T7 sequence: T1 sequence with A35S

T8: full-length human SUFU protein, 35S-radiolabeled (human, UniProt Q9UMX1-1 1-484, [35S]-methionine label)
T8 chain: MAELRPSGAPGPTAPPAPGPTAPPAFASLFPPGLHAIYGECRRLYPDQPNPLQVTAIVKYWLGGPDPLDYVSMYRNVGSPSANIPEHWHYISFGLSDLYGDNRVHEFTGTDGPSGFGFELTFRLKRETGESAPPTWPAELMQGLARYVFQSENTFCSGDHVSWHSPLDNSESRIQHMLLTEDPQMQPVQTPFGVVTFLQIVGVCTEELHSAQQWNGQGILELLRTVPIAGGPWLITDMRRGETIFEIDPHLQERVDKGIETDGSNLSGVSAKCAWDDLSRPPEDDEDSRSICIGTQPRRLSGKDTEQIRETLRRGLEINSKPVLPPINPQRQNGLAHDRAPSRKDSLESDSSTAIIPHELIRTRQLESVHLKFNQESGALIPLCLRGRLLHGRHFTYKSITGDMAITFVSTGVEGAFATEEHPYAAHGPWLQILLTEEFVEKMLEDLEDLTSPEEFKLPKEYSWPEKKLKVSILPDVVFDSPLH

B1: full-length human SUFU protein, 35S-radiolabeled (natural protein, UniProt Q9UMX1-1 1-484, looked up)
chain: T8 chain
modifications: [35S]-methionine label
notes: human SUFU, full length, residues 1-484, from plasmid pGEM4Z-SUFU; also called 35S-SUFU; radiolabeled SUFU; source: in vitro transcription and translation (SP6, Promega), partially purified by ammonium sulfate precipitation
B2: GST-GLI1_(68-232), wild type, phosphorylated by ERK2 (domain or fragment, human, UniProt P08151-1 68-232, looked up)
chain: T1 sequence with A3S, A19S, A35S, A63S, A79S, A134S
modifications: phosphorylated by ERK2 to ∼3 mol phosphate per mole; most efficient sites Ser116 and Ser130, followed by Ser102 and Ser201
notes: vector pGEX-LB; also called ERK2-phosphorylated GLI1; WT + ERK2; source: bacteria, purified (glutathione-Sepharose); then phosphorylated with purified active ERK2 (2 h, 30°C)

The target of experiment [1] is T1, GST-GLI1^S116, phosphorylated by ERK2. The experiment in a line: GLI1 phosphorylated by ERK2.
Experiment [2] addresses T2, GST-GLI1^S116,S130, phosphorylated by …. Kind of experiment: GLI1 phosphorylated by ERK2.
In experiment [3] the target is T3, GST-GLI1^S130, phosphorylated by ERK2. Kind of experiment: GLI1 phosphorylated by ERK2.
The target of experiment [4] is B2. The experiment in a line: pull-down; purified GST-GLI1_(68-232) variants (mock treated or ERK2 phosphorylated), 0 or 1.25-80 nM, on glutathione-Sepharose beads; ∼1 pmol 35S-SUFU in 200 μl; 15 min at 30°C, then 1 h at room temperature; Binding Buffer (20 mM Tris-HCl pH 7.5, 125 mM KOAc, 0.5 mM EDTA, 5 mM DTT, 0.1% Tween20, 12.5% glycerol) + 1 mg/ml BSA; bound SUFU quantified by SDS-PAGE and Phosphorimager; Kd from binding isotherms. The following applies: one partner purified.

The target in experiment [5] is T4, GST-GLI1^S116, phosphorylated by ERK2. Described as above. The following applies: one partner purified.
In experiment [6] the target is T5, GST-GLI1^S130, phosphorylated by ERK2. The description is as above. As to conditions: one partner purified.
For experiment [7], the target named is T6, GST-GLI1^S116,S130 (GST-GLI1_(68-232), …). Kind of experiment: mock treated.
In experiment [8] the target is T7, GST-GLI1^S102,S116 (GST-GLI1_(68-232), …). Kind of experiment: mock treated.
Experiment [9] concerns the target the three “two sites only”-intact mutants, ERK2-phosphorylated. The experiment in a line: pull-down; purified GST-GLI1_(68-232) variants (mock treated or ERK2 phosphorylated), 0 or 1.25-80 nM, on glutathione-Sepharose beads; ∼1 pmol 35S-SUFU in 200 μl; 15 min at 30°C, then 1 h at room temperature; Binding Buffer (20 mM Tris-HCl pH 7.5, 125 mM KOAc, 0.5 mM EDTA, 5 mM DTT, 0.1% Tween20, 12.5% glycerol) + 1 mg/ml BSA; bound SUFU quantified by SDS-PAGE and Phosphorimager; Kd from binding isotherms.

In experiment [10] the target is phosphorylated single and double-phosphosite mutants. Described as above.
In experiment [11] the target is B1. Described as above. The following applies: one partner purified.
The target in experiment [12] is T8, full-length human SUFU protein, …. Kind of experiment: GLI1 phosphorylated by ERK2.

What is called Kd is a measure of binding affinity in units of concentration. In the case of B1, the Kd is 36 nM in experiment [1]; 53 nM in experiment [2]; 16 nM in experiment [3]; 11 nM in experiment [7]; 6 nM in experiment [8]; 53 nM in experiment [10]. In experiment [4], the “fold increase of Kd against unphosphorylated GLI1” value was approximately 30 fold. For the same molecule, in experiment [4], the “fold weakening of Kd against unphosphorylated GLI1” value is more than 30 fold. The “fold increase of Kd upon phosphorylation” value in [5] came to 2.6 fold. In experiment [6], the “fold reduction in affinity after ERK2 treatment” value turned out to be 1.3 fold. In experiment [9], the fold increase of Kd after ERK2-mediated phosphorylation is 4.8 to 8.3 fold.

On to B2, for which the Kd in experiment [11] amounted to 93 nM; in [12], 118 nM.
